According to patent US20180282410A1 (Hoffmann-La Roche, published 2018):
Where two headings read alike, the source gives them in different places.

How the values were obtained:
[1] = target: T1, full-length human Robo 4 (on cells) (human, UniProt Q8WZ75 28-1007); assay: cell-based or functional assay
T1 sequence: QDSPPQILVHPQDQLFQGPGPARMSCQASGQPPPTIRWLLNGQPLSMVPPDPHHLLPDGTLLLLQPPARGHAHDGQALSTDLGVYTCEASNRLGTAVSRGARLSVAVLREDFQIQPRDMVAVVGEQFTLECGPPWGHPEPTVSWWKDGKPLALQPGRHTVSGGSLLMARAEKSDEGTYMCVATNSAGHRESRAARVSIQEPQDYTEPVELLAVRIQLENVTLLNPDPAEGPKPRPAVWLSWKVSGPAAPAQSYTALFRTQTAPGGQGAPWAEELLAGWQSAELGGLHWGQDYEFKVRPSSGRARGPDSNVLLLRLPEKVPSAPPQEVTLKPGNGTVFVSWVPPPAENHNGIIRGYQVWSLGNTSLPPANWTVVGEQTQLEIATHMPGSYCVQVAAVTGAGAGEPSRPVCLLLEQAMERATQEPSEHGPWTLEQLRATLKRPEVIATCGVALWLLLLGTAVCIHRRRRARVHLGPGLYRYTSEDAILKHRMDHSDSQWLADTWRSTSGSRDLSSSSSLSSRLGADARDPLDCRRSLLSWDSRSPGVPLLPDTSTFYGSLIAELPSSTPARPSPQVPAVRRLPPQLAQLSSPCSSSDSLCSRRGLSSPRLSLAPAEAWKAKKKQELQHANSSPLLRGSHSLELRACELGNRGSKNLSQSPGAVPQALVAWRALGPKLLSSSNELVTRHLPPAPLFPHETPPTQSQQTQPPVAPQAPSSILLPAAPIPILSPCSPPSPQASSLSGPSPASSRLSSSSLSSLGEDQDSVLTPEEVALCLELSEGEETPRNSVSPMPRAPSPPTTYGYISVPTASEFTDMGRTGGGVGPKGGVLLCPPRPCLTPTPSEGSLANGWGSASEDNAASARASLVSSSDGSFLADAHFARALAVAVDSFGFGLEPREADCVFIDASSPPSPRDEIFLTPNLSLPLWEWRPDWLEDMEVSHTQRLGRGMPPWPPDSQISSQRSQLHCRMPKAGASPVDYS

[2] = target: T1, full-length human Robo 4 (on cells); assay: cell-based or functional assay; remark: listed apart in the source
[3] = target: T2, mouse Robo 4 on MS-1 mouse endothelial cells (mouse, UniProt Q8C310 28-1012); assay: cell-based or functional assay
T2 sequence: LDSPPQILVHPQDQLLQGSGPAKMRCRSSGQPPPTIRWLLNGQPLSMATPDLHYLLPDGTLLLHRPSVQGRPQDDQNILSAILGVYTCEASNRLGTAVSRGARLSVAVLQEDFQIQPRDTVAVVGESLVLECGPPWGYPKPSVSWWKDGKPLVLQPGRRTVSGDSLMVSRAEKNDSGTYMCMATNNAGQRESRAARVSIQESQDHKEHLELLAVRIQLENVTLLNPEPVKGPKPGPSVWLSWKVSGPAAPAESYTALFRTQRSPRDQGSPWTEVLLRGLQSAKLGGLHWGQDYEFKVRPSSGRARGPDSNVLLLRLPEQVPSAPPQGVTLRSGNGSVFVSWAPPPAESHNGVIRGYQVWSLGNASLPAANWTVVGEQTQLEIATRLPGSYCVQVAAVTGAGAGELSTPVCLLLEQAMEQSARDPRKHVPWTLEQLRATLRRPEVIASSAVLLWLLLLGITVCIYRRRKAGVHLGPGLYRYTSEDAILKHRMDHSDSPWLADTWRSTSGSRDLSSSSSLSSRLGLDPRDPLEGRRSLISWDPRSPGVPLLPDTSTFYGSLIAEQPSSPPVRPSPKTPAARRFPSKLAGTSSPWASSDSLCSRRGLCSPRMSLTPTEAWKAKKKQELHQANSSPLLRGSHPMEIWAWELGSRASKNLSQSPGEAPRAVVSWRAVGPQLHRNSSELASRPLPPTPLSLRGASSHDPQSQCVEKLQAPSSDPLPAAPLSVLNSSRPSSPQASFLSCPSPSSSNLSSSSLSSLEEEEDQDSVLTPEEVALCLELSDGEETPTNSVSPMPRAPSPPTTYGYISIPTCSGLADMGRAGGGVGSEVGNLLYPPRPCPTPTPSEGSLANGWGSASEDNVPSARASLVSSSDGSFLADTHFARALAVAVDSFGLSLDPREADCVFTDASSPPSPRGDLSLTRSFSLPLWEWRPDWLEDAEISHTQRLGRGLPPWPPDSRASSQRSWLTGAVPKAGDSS

[4] = target: T1, full-length human Robo 4 (on cells); assay: cell-based or functional assay; remark: listed apart in the source
[5] = target: T2, mouse Robo 4 on MS-1 mouse endothelial …; assay: cell-based or functional assay; remark: listed apart in the source
[6] = target: T2, mouse Robo 4 on MS-1 mouse endothelial …; assay: cell-based or functional assay; remark: listed apart in the source
[7] = target: T3, recombinant human Robo1 antigen (human, UniProt Q9Y6N7 59-886, limits assumed); assay: ELISA, hybridoma supernatant
T3 construct: limits of the construct and tags are not described in the text; also called human Robol
T3 sequence (Q9Y6N7 other isoform, or with tags, fused parts or gaps limits assumed): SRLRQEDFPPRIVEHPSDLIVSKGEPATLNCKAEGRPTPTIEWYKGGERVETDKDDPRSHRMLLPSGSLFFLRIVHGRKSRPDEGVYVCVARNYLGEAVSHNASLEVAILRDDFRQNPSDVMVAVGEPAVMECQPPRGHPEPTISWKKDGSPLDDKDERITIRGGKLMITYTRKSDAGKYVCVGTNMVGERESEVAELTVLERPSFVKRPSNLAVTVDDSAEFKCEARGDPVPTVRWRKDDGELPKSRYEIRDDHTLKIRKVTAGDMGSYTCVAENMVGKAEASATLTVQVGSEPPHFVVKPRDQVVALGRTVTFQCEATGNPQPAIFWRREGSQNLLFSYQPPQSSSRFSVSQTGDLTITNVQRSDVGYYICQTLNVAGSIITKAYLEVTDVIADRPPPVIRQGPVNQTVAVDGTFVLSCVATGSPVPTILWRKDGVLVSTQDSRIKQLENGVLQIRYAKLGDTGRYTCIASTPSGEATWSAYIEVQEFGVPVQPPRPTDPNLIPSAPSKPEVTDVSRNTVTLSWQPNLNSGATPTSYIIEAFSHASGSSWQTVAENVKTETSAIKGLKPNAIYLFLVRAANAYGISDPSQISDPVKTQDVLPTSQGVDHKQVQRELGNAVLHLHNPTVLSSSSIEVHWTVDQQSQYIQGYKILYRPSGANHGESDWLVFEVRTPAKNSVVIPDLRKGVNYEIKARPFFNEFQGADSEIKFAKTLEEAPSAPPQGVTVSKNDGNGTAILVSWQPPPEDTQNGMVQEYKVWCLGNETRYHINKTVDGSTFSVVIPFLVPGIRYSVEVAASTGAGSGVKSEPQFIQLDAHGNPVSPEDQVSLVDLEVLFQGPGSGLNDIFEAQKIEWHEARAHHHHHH

B1: Molecule J, 1+1 Fab-CrossFab (VH/VL exchange in CD3 binder, CD3 binder V9, Robo 4 binder 01F05) (bispecific antibody)
chain 1: QVQLKQSGAELVKPGASVKISCKTSVYTFTYGYMHWVEQKPGQGLEWIGRIDPDSGNSMYNQKFQGRATLTRDKSSSTVYMELRSLTSEDSAVYYCARSMRYSGYRDYALDLWGQGTQVTVSSASTKGPSVFPLAPSSKSTSGGTAALGCLVKDYFPEPVTVSWNSGALTSGVHTFPAVLQSSGLYSLSSVVTVPSSSLGTQTYICNVNHKPSNTKVDKKVEPKSCDGGGGSGGGGSDIQMTQSPSSLSASVGDRVTITCRASQDIRNYLNWYQQKPGKAPKLLIYYTSRLESGVPSRFSGSGSGTDYTLTISSLQPEDFATYYCQQGNTLPWTFGQGTKVEIKSSASTKGPSVFPLAPSSKSTSGGTAALGCLVKDYFPEPVTVSWNSGALTSGVHTFPAVLQSSGLYSLSSVVTVPSSSLGTQTYICNVNHKPSNTKVDKKVEPKSC
chain 2: QLVLTQSPSASASLGASVKLTCTLSSQHSSYGITWLQQHPDKAPKYVMYLKSDGSHTKGADIPDRFSGSSSGVHRYLSISNVQPEDEAIYFCVTYDSTHVFGSGTQLTVLGQPKAAPSVTLFPPSSEELQANKATLVCLISDFYPGAVTVAWKADSSPVKAGVETTTPSKQSNNKYAASSYLSLTPEQWKSHRSYSCQVTHEGSTVEKTVAPTECS
chain 3: EVQLVESGGGLVQPGGSLRLSCAASGYSFTGYTMNWVRQAPGKGLEWVALINPYKGVSTYNQKFKDRFTISVDKSKNTAYLQMNSLRAEDTAVYYCARSGYYGDSDWYFDVWGQGTLVTVSSASVAAPSVFIFPPSDEQLKSGTASVVCLLNNFYPREAKVQWKVDNALQSGNSQESVTEQDSKDSTYSLSSTLTLSKADYEKHKVYACEVTHQGLSSPVTKSFNRGEC
- EC50 of T-cell mediated killing of HUVECs (LDH release, human pan T cells, E:T 5:1, 22 h) [1]: 26 pM
- EC50 of T-cell mediated killing of HUVECs (LDH release, human PBMCs, E:T 10:1), 24 h [2]: 204 pM
- EC50 of T-cell mediated killing of HUVECs (LDH release, human PBMCs, E:T 10:1), 48 h [2]: 127 pM
- EC50 of T-cell mediated killing of MS-1 cells (LDH release, human pan T cells, E:T 5:1, 17 h) [3]: 4 pM
- EC50 of T-cell mediated killing of HUVECs (LDH release, human PBMCs, E:T 10:1), 24 h [4]: 105 pM
- EC50 of T-cell mediated killing of HUVECs (LDH release, human PBMCs, E:T 10:1), 48 h [4]: 47.2 pM
- EC50 of T-cell mediated killing of MS-1 cells (LDH release, human PBMCs, E:T 10:1), 24 h [5]: 294 pM
- EC50 of T-cell mediated killing of MS-1 cells (LDH release, human PBMCs, E:T 10:1), 48 h [5]: 106 pM

B2: Molecule K, 1+1 Fab-CrossFab (VH/VL exchange in CD3 binder, CD3 binder 2C11, Robo 4 binder 01F05) (bispecific antibody)
chain 1: DIQMTQSPSSLPASLGDRVTINCQASQDISNYLNWYQQKPGKAPKLLIYYTNKLADGVPSRFSGSGSGRDSSFTISSLESEDIGSYYCQQYYNYPWTFGPGTKLEIKSSASTKGPSVFPLAPSSKSTSGGTAALGCLVKDYFPEPVTVSWNSGALTSGVHTFPAVLQSSGLYSLSSVVTVPSSSLGTQTYICNVNHKPSNTKVDKKVEPKSCGGGGSGGGGSQVQLKQSGAELVKPGASVKISCKTSVYTFTYGYMHWVEQKPGQGLEWIGRIDPDSGNSMYNQKFQGRATLTRDKSSSTVYMELRSLTSEDSAVYYCARSMRYSGYRDYALDLWGQGTQVTVSSASTKGPSVFPLAPSSKSTSGGTAALGCLVKDYFPEPVTVSWNSGALTSGVHTFPAVLQSSGLYSLSSVVTVPSSSLGTQTYICNVNHKPSNTKVDKKVEPKSCD
chain 2: QLVLTQSPSASASLGASVKLTCTLSSQHSSYGITWLQQHPDKAPKYVMYLKSDGSHTKGADIPDRFSGSSSGVHRYLSISNVQPEDEAIYFCVTYDSTHVFGSGTQLTVLGQPKAAPSVTLFPPSSEELQANKATLVCLISDFYPGAVTVAWKADSSPVKAGVETTTPSKQSNNKYAASSYLSLTPEQWKSHRSYSCQVTHEGSTVEKTVAPTECS
chain 3: EVQLVESGGGLVQPGKSLKLSCEASGFTFSGYGMHWVRQAPGRGLESVAYITSSSINIKYADAVKGRFTVSRDNAKNLLFLQMNILKSEDTAMYYCARFDWDKNYWGQGTMVTVSSASVAAPSVFIFPPSDEQLKSGTASVVCLLNNFYPREAKVQWKVDNALQSGNSQESVTEQDSKDSTYSLSSTLTLSKADYEKHKVYACEVTHQGLSSPVTKSFNRGEC
- EC50 of T cell mediated killing of MS-1 cells by murine splenocytes (LDH release, E:T 10:1, 48 and 72 h) [6]: 1300 pM

B3: 01F05 hybridoma clone (Armenian hamster IgG, supernatant) (antibody, V domains shown)
VH: QVQLKQSGAELVKPGASVKISCKTSVYTFTYGYMHWVEQKPGQGLEWIGRIDPDSGNSMYNQKFQGRATLTRDKSSSTVYMELRSLTSEDSAVYYCARSMRYSGYRDYALDLWGQGTQVTVSS
VL: QLVLTQSPSASASLGASVKLTCTLSSQHSSYGITWLQQHPDKAPKYVMYLKSDGSHTKGADIPDRFSGSSSGVHRYLSISNVQPEDEAIYFCVTYDSTHVFGSGTQLTVLG
- binding result [7]: no binding

B4: 01E06 hybridoma clone (Armenian hamster IgG, supernatant) (antibody, V domains shown)
VH: EVQLVESGGGLSQPGNSLKLSCEASGFTFRNYDMSWVRQAPGKGLEWVAYISSGGGPIYYVDAVKGRFTISRDNAKNLLFLQMNNLRSEDTAVYYCARDLADIGVFDYWGQGTMVTVSS
VL: DFKMTQSPDILSPSLGESVTITCQSSQNIYSNLAWYQQKPGEHPKLLIYTASILADGIPSRFTGSGSGTQFSLKISSLQPDDVANYYCQQYVYYRTFGPGTKLEIK
- binding result [7]: no binding

B5: 01F09 hybridoma clone (Armenian hamster IgG, supernatant) (antibody, V domains shown)
VH: QIQLQESGPGLVKPSQSLSLTCSVTGYSISSGSLWTWIRQFPGNNLEWMGYISYAGGIDYNPSLTSRISITRDTSRNQFFLQLESVTTQDTATYYCATPGGYPFHFDYWGQGTMVTVSS
VL: QPVLTQSPSASASLGASVKLTCTLNSQFSTYNIGWYQQHRDKPPKYVMFVKGDGGHSKADGIPDRFSGSSSGADRYLTISNIQAEDEAIYFCGADYNNAGQYGCVFGSGTHFTVLG
- binding result [7]: no binding
